To fix the notation:
T1: human CDCP1 on tumor cells (human, UniProt Q9H5V8 30-836)
T1 sequence (looked up): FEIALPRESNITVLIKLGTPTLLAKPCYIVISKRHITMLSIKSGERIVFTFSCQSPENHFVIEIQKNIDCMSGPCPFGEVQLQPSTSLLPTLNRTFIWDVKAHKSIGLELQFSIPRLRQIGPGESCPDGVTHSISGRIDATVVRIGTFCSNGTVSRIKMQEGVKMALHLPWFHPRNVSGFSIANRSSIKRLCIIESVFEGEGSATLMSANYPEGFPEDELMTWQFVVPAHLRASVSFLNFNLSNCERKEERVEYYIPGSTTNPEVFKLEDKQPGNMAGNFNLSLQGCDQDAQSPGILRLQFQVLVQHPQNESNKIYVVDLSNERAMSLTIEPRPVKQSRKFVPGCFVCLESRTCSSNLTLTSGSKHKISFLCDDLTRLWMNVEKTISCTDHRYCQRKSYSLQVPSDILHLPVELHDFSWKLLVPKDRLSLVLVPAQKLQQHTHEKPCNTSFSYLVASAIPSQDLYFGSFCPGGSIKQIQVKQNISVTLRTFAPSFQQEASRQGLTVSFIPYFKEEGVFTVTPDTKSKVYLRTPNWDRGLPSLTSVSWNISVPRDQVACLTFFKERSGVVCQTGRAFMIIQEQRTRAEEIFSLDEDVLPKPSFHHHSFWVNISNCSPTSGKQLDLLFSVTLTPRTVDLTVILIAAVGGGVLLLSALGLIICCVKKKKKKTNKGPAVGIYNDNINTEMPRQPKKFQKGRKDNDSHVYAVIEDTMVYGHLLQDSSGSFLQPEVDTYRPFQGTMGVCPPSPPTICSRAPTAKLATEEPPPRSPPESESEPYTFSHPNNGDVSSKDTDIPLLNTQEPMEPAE

T2: HuCDCP1-C (human, UniProt Q9H5V8 30-667)
T2 construct: range 30-667; expressed in HEK-293T, purified by Fc/his tag; also called human CDCP1-C; full-length extracellular domain of human CDCP1; not shown: Fc or his tag
T2 sequence (looked up): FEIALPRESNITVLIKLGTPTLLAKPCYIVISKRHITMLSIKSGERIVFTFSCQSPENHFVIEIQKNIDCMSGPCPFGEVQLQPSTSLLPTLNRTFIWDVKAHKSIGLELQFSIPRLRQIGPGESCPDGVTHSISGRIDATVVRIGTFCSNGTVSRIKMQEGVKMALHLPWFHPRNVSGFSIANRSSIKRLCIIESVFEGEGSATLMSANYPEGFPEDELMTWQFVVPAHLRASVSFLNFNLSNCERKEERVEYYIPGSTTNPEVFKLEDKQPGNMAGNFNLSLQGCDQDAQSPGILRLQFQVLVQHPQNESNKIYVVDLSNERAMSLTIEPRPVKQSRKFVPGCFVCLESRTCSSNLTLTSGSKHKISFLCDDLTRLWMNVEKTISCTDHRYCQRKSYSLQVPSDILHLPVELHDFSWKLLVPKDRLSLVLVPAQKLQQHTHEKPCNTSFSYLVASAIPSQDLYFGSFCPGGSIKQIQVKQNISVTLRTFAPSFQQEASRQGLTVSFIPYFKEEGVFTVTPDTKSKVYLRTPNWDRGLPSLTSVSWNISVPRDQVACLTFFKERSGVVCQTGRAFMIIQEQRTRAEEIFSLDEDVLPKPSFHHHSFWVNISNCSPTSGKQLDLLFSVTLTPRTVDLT

B1: 10D2-MMAE (antibody, V domains shown)
VH: EVQLQQSGPELKKPGETVKISCKASGYTFTDYSMHWVKQAPGKGLKWMGWINTETGQPTYADDFKGRFAFSLETSASSAYLQINNLKNEDTATYFCTRTFYYDYVGDYWGQGTTVTVSS
VL: DIVMTQSHKFMSTSVGDRVSITCKASQDVSTAVAWYRQKPGQSPKLLIYWASTRHTGVPDRLTGSGSGTDFALTINSVQAEDLALYYCQQHSSTPYTFGGGTKLEIK
modifications: vc-MMAE coupled after reduction, sites not stated; DAR 3.5
B2: 5B8-MMAE (antibody, V domains shown)
VH: EVQLKESGGGLVQPGGSLRISCATSGLTFTHYHMSWVRQPPGKAPEWLAIIRNKAYGYTTDYSASVRGRFTISRDDSQSILYLQMNTLRAEDSATYYCVREGGYGYDGTFAYWGQGTTVTVSS
VL: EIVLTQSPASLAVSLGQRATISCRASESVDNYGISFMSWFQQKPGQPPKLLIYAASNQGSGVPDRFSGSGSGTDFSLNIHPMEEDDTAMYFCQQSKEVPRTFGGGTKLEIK
modifications: vc-MMAE coupled after reduction, sites not stated; DAR 3.85
B3: 8C9-MMAE (antibody, V domains shown)
VH: B2 VH with A90P
VL: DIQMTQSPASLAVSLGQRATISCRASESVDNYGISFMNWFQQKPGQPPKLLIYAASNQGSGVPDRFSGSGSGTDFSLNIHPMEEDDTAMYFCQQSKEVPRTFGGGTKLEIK
modifications: vc-MMAE coupled after reduction, sites not stated; DAR 3.44
B4: 3C11-MMAE (antibody, V domains shown)
VH: EVQLQQSGTVLARPGASVKMSCKASGYNFISYWLHWIKQRPGQGLEWIGGIYPGNTDTTYNQKFKGKAKVTAVTSATTAYMELSSLTNEDSAVYYCIRYDYDRGMDYWGQGTTVTVSS
VL: DIQMTQSPSSFSVSLGDRVTITCRASEDIYYRLAWYQQKPGNAPRLLISGATALETGVPSRFSGSGSGKDYTLSITSLQTEDVATYYCQHYWNIPWTFGGGTKLEIK
modifications: vc-MMAE coupled after reduction, sites not stated; DAR 3.48
B5: 3B12H5-MMAE (antibody, V domains shown)
VH: EVQLQQSGTVLARPGASVKMSCKASGYSFTIYWVHWVKQRPGQGLEWIGAVYPGNDDTSYNQNFKGKAKLTAVTSATTAYMELSSLTIDDSAVYYCTRHTYDEVFDYWGQGTTVTVSS
VL: B4 VL with Q3V, F11L, R24K, A51G, A53N, T56A, V58I, T85I, I94T
modifications: vc-MMAE coupled after reduction, sites not stated; DAR 3.2
B6: 6A7-MMAE (antibody, V domains shown)
VH: EVQLKESGAELVRPGASVKVSCKASGYSFTSYWMNWVKQRPGQGLEWIGMIHPSDSETKLNQKFRDRASLTVDKSSSTAYMQLSSPTSEDSAVYYCTINYESFYYAMDYWGQGTTVTVSS
VL: DIVMTQSPASLAVSLGQRATISCRASKSVSTSGYSYMHWYQQKPGQPPKLLLYLASNLESGVPARFSGSGSGADFTLNIHPVEEEDAATYYCLHSRELPYTFGGGTKLEIK
modifications: vc-MMAE coupled after reduction, sites not stated; DAR 3.6
B7: 8E5-MMAE (antibody, V domains shown)
VH: EVQLKESGPELKKPGETVKISCKASGYTLTDFSMHWLKQAPGKGLKWMGWINTETGAPTYADDFKGRFALSLDTSANTAYLQINNLKNEDTATYFCSRGRDYDPHFDYWGQGTTVTVSS
VL: EIVLTQSPATLSVTPGDRVSLSCRASQSISDFLHWYQQRSHESPRLLIKYASQSISGIPSRFGGSGSGSDFTLNINTVEPEDVGMYYCQSAHSFPYTFGGGTKLEIK
modifications: vc-MMAE coupled after reduction, sites not stated; DAR 3.65
B8: 1CP-156 (antibody, human IgG1, kappa, V domains shown)
VH: EVQLVESGGGLVQPGRSLRLSCTTSGLTFTHYHMSWVRQAPGKGLEWVAIIRNKAYGYTTDYSASVRGRFTISRDDSKSILYLQMNSLKTEDTAVYYCVREGGYGYDGTFAYWGQGTLVTVSS
VL: DIQMTQSPSSLSASVGDRVTITCRASESVDNYGISFMNWFQQKPGQPPKLLIYAASNQGSGVPSRFSGSGSGTDFTLTISSMQPEDFATYYCQQSKEVPRTFGGGTKVEIKR
notes: humanized 8C9, human IgG1 kappa
B9: 1CP-154 (antibody, human IgG1, kappa, V domains shown)
VH: B8 VH with A40P, G44A, L45P
VL: B8 VL with P47A
notes: as for B8
B10: 1CP-161 (antibody, human IgG1, kappa, V domains shown)
VH: B8 VH with L45P
VL: B8 VL with Y91F
notes: as for B8
B11: 1CP-158 (antibody, human IgG1, kappa, V domains shown)
VH: B8 VH with A40P, G44A, L45P
VL: B8 VL
notes: as for B8
B12: 1CP-162 (antibody, human IgG1, kappa, V domains shown)
VH: B8 VH with A40P, G44A, L45P
VL: B8 VL with Y91F
notes: as for B8
B13: 1CP-151 (antibody, human IgG1, kappa, V domains shown)
VH: B8 VH with T24A, V37F
VL: B8 VL with P47A
notes: as for B8
B14: 1CP-153 (antibody, human IgG1, kappa, V domains shown)
VH: B8 VH with L45P
VL: B8 VL with P47A
notes: as for B8
B15: 1CP-155 (antibody, human IgG1, kappa, V domains shown)
VH: B8 VH with T24A, V37F
VL: B8 VL
notes: as for B8
B16: 1CP-159 (antibody, human IgG1, kappa, V domains shown)
VH: B8 VH with T24A, V37F
VL: B8 VL with Y91F
notes: as for B8
B17: 1CP-160 (antibody, human IgG1, kappa, V domains shown)
VH: B8 VH
VL: B8 VL with Y91F
notes: as for B8

These results are taken from patent publication US20260250410A1 (SICHUAN HUIYU PHARMACEUTICAL, published 2026).

Positions count from the first letter of the chain named. Some results are limits rather than exact numbers.

The target of one assay is T1, human CDCP1 on tumor cells. The experiment in a line: cell-based or functional assay.
In the case of B1, the “IC50 (nM), killing of HCT116 cells (120 h), CellTiter-Glo” value (from here on “IC50 (nM), killing of HCT116 cells”) came to 11.4 nM; the “IC50 (nM), killing of MDA-MB-231 cells (120 h), CellTiter-Glo” value (“IC50 (nM), killing of MDA-MB-231 cells” for short) is > 200 nM; the “IC50 (nM), killing of PC3 cells (96 h), CellTiter-Glo” value (“IC50 (nM), killing of PC3 cells” for short) was determined as 0.0164 nM.

Consider B2, for which the “IC50 (nM), killing of HCT116 cells” value turned out to be 11.7 nM; the “IC50 (nM), killing of MDA-MB-231 cells” value is > 200 nM; the “IC50 (nM), killing of PC3 cells” value was 0.014 nM.

For B3, the “IC50 (nM), killing of HCT116 cells” value was determined as 13 nM; the “IC50 (nM), killing of MDA-MB-231 cells” value was > 40 nM; the “IC50 (nM), killing of PC3 cells” value was determined as 0.0184 nM.

On to B4, for which the “IC50 (nM), killing of HCT116 cells” value is 2.33 nM; the “IC50 (nM), killing of MDA-MB-231 cells” value is > 40 nM; the “IC50 (nM), killing of PC3 cells” value was 0.0119 nM.

Consider B5, for which the “IC50 (nM), killing of HCT116 cells” value is 6.87 nM; the “IC50 (nM), killing of MDA-MB-231 cells” value is > 40 nM; the “IC50 (nM), killing of PC3 cells” value worked out at 0.0225 nM.

With B6, the “IC50 (nM), killing of HCT116 cells” value is 5.84 nM; the “IC50 (nM), killing of MDA-MB-231 cells” value is > 40 nM; the “IC50 (nM), killing of PC3 cells” value is 0.0527 nM.

As for B7, the “IC50 (nM), killing of HCT116 cells” value was 10.6 nM; the “IC50 (nM), killing of MDA-MB-231 cells” value is > 40 nM; the “IC50 (nM), killing of PC3 cells” value was 0.0205 nM.

The next assay has as its target T2, HuCDCP1-C. The experiment in a line: SPR (Caterra), antigen immobilized. How it is done: The humanized anti-CDCP1 antibodies obtained from Example 11 were subjected to gene cloning, constructed into pTT5 expression vector for a small amount of expression in CHO cells (Expi-CHOS: Gibco A29127), and purified with an Fc affinity column (AT Protein A Diamond Plus. No. AA402312). Antibody purity was analyzed by HPLC and determined by Nanodrop. High-throughput affinity assay was carried out for a small amount of antibodies by Caterra.
With B8, the Kd worked out at 3.6 nM, the dissociation rate constant (koff) came to 0.000441 s⁻¹ and the kon was 123000 M⁻¹ s⁻¹.

B9: binding was characterised by a dissociation constant (Kd) of 2.92 nM, the koff came to 0.000346 s⁻¹ and the kon is 118000 M⁻¹ s⁻¹.

Molecule B10 registered a Kd of 3.21 nM, a koff of 0.000365 s⁻¹ and an association rate constant (kon) of 114000 M⁻¹ s⁻¹.

In turn, B11 came in with a Kd of 2.96 nM, a koff of 0.000321 s⁻¹ and a kon of 109000 M⁻¹ s⁻¹.

As for B12, the Kd amounted to 2.7 nM, the koff was 0.000305 s⁻¹ and the kon turned out to be 113000 M⁻¹ s⁻¹.

For the molecule B13, the affinity, expressed as Kd, was 19.1 nM; the koff worked out at 0.00302 s⁻¹; the kon came to 158000 M⁻¹ s⁻¹.

Take B14: binding was put at a Kd of 3.58 nM, the koff is 0.000388 s⁻¹ and the kon was 108000 M⁻¹ s⁻¹.

B15: binding was put at a Kd of 36.6 nM, the koff came out at 0.000579 s⁻¹ and the kon is 15800 M⁻¹ s⁻¹.

B16 displayed a Kd of 42.5 nM, an off-rate (koff) of 0.000767 s⁻¹ and a kon of 18000 M⁻¹ s⁻¹.

With B17, the Kd came out at 3.8 nM, the koff worked out at 0.00042 s⁻¹ and the kon came out at 110000 M⁻¹ s⁻¹.
